In PMC3912051, “The B-Subdomain of the Xenopus laevis XFIN KRAB-AB Domain Is Responsible for Its Weaker Transcriptional Repressor Activity Compared to Human ZNF10/Kox1” (PLoS ONE, 2014):

Biological target: TRIM28 (endogenous human TRIM28 protein) (human (endogenous in HeLa), UniProt Q13263 1-835)
Test: cell-based or functional assay

Sequence of TRIM28 (endogenous human TRIM28 protein) (Q13263 whole entry): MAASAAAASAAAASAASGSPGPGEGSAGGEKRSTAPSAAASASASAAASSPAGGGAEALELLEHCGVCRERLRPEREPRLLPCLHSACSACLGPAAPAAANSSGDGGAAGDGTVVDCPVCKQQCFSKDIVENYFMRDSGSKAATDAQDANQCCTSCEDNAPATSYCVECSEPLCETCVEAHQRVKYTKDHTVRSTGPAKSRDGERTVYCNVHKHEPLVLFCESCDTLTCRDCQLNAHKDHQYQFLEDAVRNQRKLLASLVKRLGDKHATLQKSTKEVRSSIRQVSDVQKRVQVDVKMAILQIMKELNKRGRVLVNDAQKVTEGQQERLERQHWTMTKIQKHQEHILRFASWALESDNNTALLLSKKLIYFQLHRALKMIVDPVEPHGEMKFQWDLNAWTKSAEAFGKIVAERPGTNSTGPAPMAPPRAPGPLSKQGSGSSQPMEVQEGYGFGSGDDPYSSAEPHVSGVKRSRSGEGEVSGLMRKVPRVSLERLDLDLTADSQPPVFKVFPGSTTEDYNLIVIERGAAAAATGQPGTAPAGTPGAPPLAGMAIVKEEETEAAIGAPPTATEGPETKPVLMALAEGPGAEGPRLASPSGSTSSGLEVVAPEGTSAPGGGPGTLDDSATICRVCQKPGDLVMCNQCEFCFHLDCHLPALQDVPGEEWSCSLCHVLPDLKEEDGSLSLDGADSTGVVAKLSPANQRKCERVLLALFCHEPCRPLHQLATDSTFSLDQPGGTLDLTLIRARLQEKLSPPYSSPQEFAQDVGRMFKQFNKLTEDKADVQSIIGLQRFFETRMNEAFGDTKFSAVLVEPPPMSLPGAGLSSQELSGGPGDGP

B1: GST-ZNF10-KRAB-AB (KRAB-AB domain of human ZNF10/Kox1 fused to glutathione S-transferase) (domain or fragment)
chain: not shown
fold repression of a Gal4-site luciferase reporter by Gal4-ZNF10-KRAB-AB in EPC fish cells with co-transfected human TRIM28 (negligible without it): ~2 fold
